Patent US20200057047

B1: Flag-tagged GLK (protein)
chain: DYKDDDDKMNPGFDLSRRNPQEDFELIQRIGSGTYGDVYKARNVNTGELAAIKVIKLEPGEDFAVVQQEIIMMKDCKHPNIVAYFGSYLRRDKLWICMEFCGGGSLQDIYHVTGPLSELQIAYVSRETLQGLYYLHSKGKMHRDIKGANILLTDNGHVKLADFGVSAQITATIAKRKSFIGTPYWMAPEVAAVERKGGYNQLCDLWAVGITAIELAELQPPMFDLHPMRALFLMTKSNFQPPKLKDKMKWSNSFHHFVKMALTKNPKKRPTAEKLLQHPFVTQHLTRSLAIELLDKVNNPDHSTYHDFDDDDPEPLVAVPHRIHSTSRNVREEKTRSEITFGQVKFDPPLRKETEPHHELPDSDGFLDSSEEIYYTARSNLDLQLEYGQGHQGGYFLGANKSLLKSVEEELHQRGHVAHLEDDEGDDDESKHSTLKAKIPPPLPPKPKSIFIPQEMHSTEDENQGTIKRCPMSGSPAKPSQVPPRPPPPRLPPHKPVALGNGMSSFQLNGERDGSLCQQQNEHRGTNLSRKEKKDVPKPISNGLPPTPKVHMGACFSKVFNGCPLKIHCASSWINPDTRDQYLIFGAEEGIYTLNLNELHETSMEQLFPRRCTWLYVMNNCLLSISGKASQLYSHNLPGLFDYARQMQKLPVAIPAHKLPDRILPRKFSVSAKIPETKWCQKCCVVRNPYTGHKYLCGALQTSIVLLEWVEPMQKFMLIKHIDFPIPCPLRMFEMLVVPEQEYPLVCVGVSRGRDFNQVVRFETVNPNSTSSWFTESDTPQTNVTHVTQLERDTILVCLDCCIKIVNLQGRLKSSRKLSSELTFDFQIESIVCLQDSVLAFWKHGMQGRSFRSNEVTQEISDSTRIFRLLGSDRVVVLESRPTDNPTANSNLYILAGHENSY
B2: IKKβ (immunoprecipitated from HEK293T transfectants) (enzyme, UniProt O14920 1-756, looked up, species assumed)
Inhibitor of nuclear factor kappa-B kinase subunit beta: MSWSPSLTTQTCGAWEMKERLGTGGFGNVIRWHNQETGEQIAIKQCRQELSPRNRERWCLEIQIMRRLTHPNVVAARDVPEGMQNLAPNDLPLLAMEYCQGGDLRKYLNQFENCCGLREGAILTLLSDIASALRYLHENRIIHRDLKPENIVLQQGEQRLIHKIIDLGYAKELDQGSLCTSFVGTLQYLAPELLEQQKYTVTVDYWSFGTLAFECITGFRPFLPNWQPVQWHSKVRQKSEVDIVVSEDLNGTVKFSSSLPYPNNLNSVLAERLEKWLQLMLMWHPRQRGTDPTYGPNGCFKALDDILNLKLVHILNMVTGTIHTYPVTEDESLQSLKARIQQDTGIPEEDQELLQEAGLALIPDKPATQCISDGKLNEGHTLDMDLVFLFDNSKITYETQISPRPQPESVSCILQEPKRNLAFFQLRKVWGQVWHSIQTLKEDCNRLQQGQRAAMMNLLRNNSCLSKMKNSMASMSQQLKAKLDFFKTSIQIDLEKYSEQTEFGITSDKLLLAWREMEQAVELCGRENEVKLLVERMMALQTDIVDLQRSPMGRKQGGTLDDLEEQARELYRRLREKPRDQRTEGDSQEMVRLLLQAIQSFEKKVRVIYTQLSKTVVCKQKALELLPKVEEVVSLMNEDEKTVVRLQEKRQKELWNLLKIACSKVRGPVSGSPDSMNASRLSQPGQLMSQPSTASNSLPEPAKKSEELVAEAHNLCTLLENAIQDTVREQDQSFTALDWSWLQTEEEEHSCLEQAS

Legend:
[1] = target: Myc-tagged IQGAP1 (wild type)
[2] = test system: Flag-tagged RORγt (wild type)
Flag-tagged RORγt (wild type), sequence (chain, as listed by the source): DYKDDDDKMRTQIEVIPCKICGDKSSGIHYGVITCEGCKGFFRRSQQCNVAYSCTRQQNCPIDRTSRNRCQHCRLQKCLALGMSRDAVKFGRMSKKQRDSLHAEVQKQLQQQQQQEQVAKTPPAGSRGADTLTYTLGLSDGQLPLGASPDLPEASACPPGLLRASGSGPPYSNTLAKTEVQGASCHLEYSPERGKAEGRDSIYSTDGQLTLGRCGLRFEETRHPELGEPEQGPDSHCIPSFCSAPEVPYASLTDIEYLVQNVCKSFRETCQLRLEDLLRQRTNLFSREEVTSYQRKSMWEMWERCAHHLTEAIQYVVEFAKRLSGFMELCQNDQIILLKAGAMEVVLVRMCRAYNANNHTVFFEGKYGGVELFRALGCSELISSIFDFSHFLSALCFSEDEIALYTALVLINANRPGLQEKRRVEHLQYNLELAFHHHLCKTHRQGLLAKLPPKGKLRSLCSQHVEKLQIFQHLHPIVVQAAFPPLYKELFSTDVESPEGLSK

Myc-tagged IQGAP1 (wild type), sequence (chain, as listed by the source): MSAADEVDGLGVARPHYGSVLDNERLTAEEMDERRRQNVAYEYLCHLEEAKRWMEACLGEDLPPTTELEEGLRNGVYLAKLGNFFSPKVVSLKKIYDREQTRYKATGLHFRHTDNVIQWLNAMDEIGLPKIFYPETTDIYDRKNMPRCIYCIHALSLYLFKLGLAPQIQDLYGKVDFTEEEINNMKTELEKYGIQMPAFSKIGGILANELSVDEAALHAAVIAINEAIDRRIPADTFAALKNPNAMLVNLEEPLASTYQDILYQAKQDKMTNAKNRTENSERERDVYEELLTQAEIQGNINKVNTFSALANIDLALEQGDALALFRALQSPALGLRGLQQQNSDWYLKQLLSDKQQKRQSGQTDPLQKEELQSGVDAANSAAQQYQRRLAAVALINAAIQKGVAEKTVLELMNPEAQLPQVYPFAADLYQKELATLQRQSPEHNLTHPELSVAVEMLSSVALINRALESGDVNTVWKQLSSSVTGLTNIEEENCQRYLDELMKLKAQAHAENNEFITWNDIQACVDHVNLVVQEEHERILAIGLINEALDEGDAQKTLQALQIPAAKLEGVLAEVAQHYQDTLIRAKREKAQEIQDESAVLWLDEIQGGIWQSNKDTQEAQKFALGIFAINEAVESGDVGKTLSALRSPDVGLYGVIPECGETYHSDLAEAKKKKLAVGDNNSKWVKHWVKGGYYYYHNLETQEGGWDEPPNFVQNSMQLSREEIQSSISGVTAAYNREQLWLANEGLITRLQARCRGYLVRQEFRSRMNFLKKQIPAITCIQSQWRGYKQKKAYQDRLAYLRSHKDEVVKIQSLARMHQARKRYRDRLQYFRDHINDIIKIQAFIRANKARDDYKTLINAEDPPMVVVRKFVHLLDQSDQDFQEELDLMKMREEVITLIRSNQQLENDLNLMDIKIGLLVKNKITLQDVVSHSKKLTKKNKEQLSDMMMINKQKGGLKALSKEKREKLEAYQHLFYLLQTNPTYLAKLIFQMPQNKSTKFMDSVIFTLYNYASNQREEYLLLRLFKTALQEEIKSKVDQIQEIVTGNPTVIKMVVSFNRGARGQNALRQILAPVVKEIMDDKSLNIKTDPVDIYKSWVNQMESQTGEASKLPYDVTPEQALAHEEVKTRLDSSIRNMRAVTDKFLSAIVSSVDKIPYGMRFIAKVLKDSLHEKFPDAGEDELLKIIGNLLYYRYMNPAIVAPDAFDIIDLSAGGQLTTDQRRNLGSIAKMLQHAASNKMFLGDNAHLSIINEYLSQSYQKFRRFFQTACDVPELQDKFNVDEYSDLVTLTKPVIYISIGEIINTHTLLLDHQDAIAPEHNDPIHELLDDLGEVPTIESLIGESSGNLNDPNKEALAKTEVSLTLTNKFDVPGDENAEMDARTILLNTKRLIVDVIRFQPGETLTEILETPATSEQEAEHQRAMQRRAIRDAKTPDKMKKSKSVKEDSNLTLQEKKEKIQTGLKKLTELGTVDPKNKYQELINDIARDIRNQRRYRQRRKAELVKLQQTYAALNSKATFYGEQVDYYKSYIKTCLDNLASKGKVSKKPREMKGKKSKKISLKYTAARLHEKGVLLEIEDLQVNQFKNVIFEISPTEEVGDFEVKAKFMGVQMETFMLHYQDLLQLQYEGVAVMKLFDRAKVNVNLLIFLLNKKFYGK

Protein | in vitro kinase assay: IQGAP1 phosphorylation [1] | in vitro kinase assay: RORγt phosphorylation [2]
B1 | IQGAP1 phosphorylation was induced by GLK | 
B2 |  | RORγt phosphorylation was induced in vitro by IKKβ
